Experimental data reported in the supplement of paper PMC12042874.
± gives the uncertainty stated by the source.

Experiment: amyloid nucleation score (Sup35N fusion, yeast selection) (log enrichment); library NNK1; higher = more nucleation; inactive = no reads after selection
How it was run: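 The nucleation score is the DiMSum log enrichment of output over input reads, centred on the mode score of non-aggregating sequences. Only sequences with 100 or more input reads were scored, using Illumina sequencing of input and output plasmid inserts. Psi-negative yeast expressing Sup35N fused to peptides of 20 random codons were induced 24 hours with 100 μM copper sulfate and grown 7 days at 30°C on medium lacking adenine and uracil.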

| Substance | amyloid nucleation score |
| --- | --- |
| SRVRVLASVSFMTVRMVFEV | 0.436 ± 0.25 |
| LITMGMTRIYILMISDYLKF | 0.701 ± 0.51 |
| FKVIYARFVTIWVAVRRAFL | 0.051 ± 0.69 |
| YLFMMAIRGAKTLVS | inactive |
| LTAYLRGTDSGPERSWRCAS | -0.209 ± 0.88 |
| WMYRLYSISLITSDCS | 0.514 ± 0.33 |
| LWPFKSFGLVPCTV | -0.572 ± 0.69 |
| SRCCRYLKHVRSIGSVQVAS | 1.16 ± 0.32 |
| IYRFSCETHIFQYSRQVLFG | 0.786 ± 0.63 |
| GLTRFGGPSTMIFMDL | -0.201 ± 0.8 |
| MHYGTLSIVV | 0.302 ± 0.3 |
| AENITGWVVPIVVTLTASAR | -0.163 ± 0.29 |
| FSEVTLFFPKDAILEFSARC | -0.353 ± 0.79 |
| HPFYIFAVYIFPYHCLSCSL | 0.331 ± 0.33 |
| WGVFDTETIVWFVYIGTL | -0.026 ± 0.32 |
| SMMSGCGTGVAPKAWSGDGW | 0.974 ± 0.62 |
| GRHRMVWGH | 0.345 ± 0.93 |
| SCLVWLFRCFFRTYQYYEFI | 0.253 ± 0.24 |
| YSMVI | inactive |
| QIVRTRFNRYR | -0.313 ± 1.1 |
| LTNIYLVRMT | 5.26 ± 0.071 |
| LFKFYCKTYHTPLSLIYPFW | inactive |
| AWLSGVNVVSKSQGCFLWYG | 0.551 ± 0.56 |
| SEIPKSYPNFDYVSFINNSL | -0.24 ± 0.39 |

| Substance | amyloid nucleation score |
| --- | --- |
| SRGHDVRLTACDADGGLGLC | -0.17 ± 0.46 |
| GPCNTRSCV | -0.037 ± 0.43 |
| RYMSHGIGGTPV | 0.142 ± 0.69 |
| CYLACLLQTHYND | -1.18 ± 2.7 |
| SSTGAVLIHNCTTRSVDLSG | 0.45 ± 0.69 |
| FSDNRASPESKPQCVTGRRD | 0.669 ± 0.31 |
| YREGHHPGWTMVKMMRTQVP | 0.26 ± 0.6 |
| TLFCYADMWYNLYHRIVKVR | 1.52 ± 0.48 |
| YQWFMYVF | 4.61 ± 0.11 |
| GLYKYYRSLILSLVSFNFS | 1.18 ± 0.16 |
| MVDMLVKMGYRLLGRYISMR | 0.942 ± 0.69 |
| VFSVAGASCCRRIGSCWLLR | 0.687 ± 0.97 |
| DHYYVVAFFRQLWRCCLFRV | inactive |
| NRKEFKCSRWHRGNWYVNAR | -0.378 ± 0.79 |
| TLPTKTTPSAFAVNEVTFLT | -0.573 ± 0.4 |
| MYLVM | 0.191 ± 0.48 |
| RLQSKLLHCS | -0.169 ± 0.45 |
| CNWATLTMWLLSCIRPTPRS | -1.1 ± 2.4 |
| FVGSSFGDDFISVSIHSWRP | inactive |
| DIITFHYLRTARLKGRYLFI | inactive |
| NYVGWLLCASILVRYNGTLE | 1.26 ± 0.77 |
| MLNAIRSVGMSTHRSSEGG | -0.475 ± 0.77 |
| QDFSVTPHGV | 0.228 ± 0.62 |
| LYSDGLFANRTWLYF | 1.01 ± 0.61 |

| Substance | amyloid nucleation score |
| --- | --- |
| RCMGGGFRRRVNMYETPGIR | -0.387 ± 0.79 |
| YSHDSSSTIFRNETPLSTPM | inactive |
| CMKYMLCARKYFKSYSWLLS | 1.04 ± 0.73 |
| MVGSKSGKDGAQASSRKLAF | 0.708 ± 0.34 |
| ALPCYCPPVQSPCASFGWME | -0.569 ± 0.29 |
| IHESTWSVKGSWVHQRGPGP | 2.56 ± 0.21 |
| IYTDSVGLFCSYADMPSDRV | 0.372 ± 1.4 |
| IFKDLCLTTSGLDIDPNFND | 0.762 ± 0.51 |
| YKDYVDLERAFKLMPGQKLW | inactive |
| DTAWNLVQSVS | 0.496 ± 0.7 |
| YCKLDLPVTIEVKCSRGRMS | 5.17 ± 0.08 |
| AIIERADLSGMPLFSGFPGD | -0.148 ± 0.8 |
| CLMIKMHSILIDVIYLHTRV | -0.363 ± 0.77 |
| EVCFCEGEVKFWGKGAIFSR | -1.88 ± 1.8 |
| CMLDGALLLILVVFTIPCLN | 0.909 ± 0.6 |
| MYLFICVGSMVNQDVNEMMR | 3.84 ± 0.084 |
| DQIGDYLRFACSDKDYS | 0.039 ± 0.76 |
| NSRNDLVMLILLPSSRAGRL | 0.325 ± 0.99 |
| YAMNPHTDGPCTFNWVFYGK | 8.094 ± 0.056 |
| IWRLWWAKGPGSRLLRCRLY | -0.167 ± 0.42 |
| RMMSVGALGQG | 0.323 ± 0.76 |
| EYWGRGEVRADMWRRWIGW | 1.23 ± 0.4 |
| YHLTQYDTMLLQYMWNHDWD | -0.707 ± 0.89 |
| MMYDGIVSR | -0.184 ± 0.31 |

| Substance | amyloid nucleation score |
| --- | --- |
| LGISPVSTGKKVNEDVYSGF | 0.618 ± 0.79 |
| EVRSSFYPSHYYRALRDL | -1.37 ± 2.4 |
| KFRESFLT | -1.32 ± 0.94 |
| VTLSIYVNNSDGISR | 0.588 ± 0.4 |
| FSFRRFCLCMLREGHTRQLG | -0.957 ± 2.4 |
| SGKPYLLGCTFSSVTLCPQV | -0.227 ± 0.38 |
| NIHVSKVGGLGTNLCYARNA | 1.77 ± 0.51 |
| FRLDNLRCTWVFRYPIGESS | 1.17 ± 0.73 |
| SLEWLESCFSDAHIHTAH | -0.733 ± 1.9 |
| GDVPYRNMHCPRFLMREMVV | 0.354 ± 0.25 |
| IYRMRDNMNSRLRVYFNRVF | inactive |
| WSYGSEPM | inactive |
| VTFWHVFLIFSYLSTCAWWW | -0.382 ± 1.2 |
| HVLADHYTMRGTNFVGYFHL | 4.88 ± 0.069 |
| FSTAM | 0.895 ± 0.79 |
| YSYNYGWTVAEELYNRCIGA | 0.266 ± 0.36 |
| MVKRCVDNFRKWKSVDSSYR | 0.671 ± 0.37 |
| VVNVQMNQPYMQCFPQDTR | 3.93 ± 0.082 |
| VRCNGDLQDKYRISFCNKSR | 0.01 ± 1.2 |
| YASTSNILLSIS | 0.546 ± 0.2 |
| VLFKGHLIEV | 0.138 ± 0.3 |
| SSLYETY | inactive |
| LMLRLRVLPVA | -0.234 ± 0.26 |
| DTGGLYLERARQFKASMFLR | 0.229 ± 0.42 |

| Substance | amyloid nucleation score |
| --- | --- |
| SRDVVSAGYKKCGYGMYCTK | 1.11 ± 0.37 |
| FIISSTQPRCRAPLTS | -0.165 ± 0.56 |
| MFYVPIGPLSRCWRTALGFI | -0.786 ± 0.85 |
| SLKDVPISCFNYMHC | 4.39 ± 0.094 |
| MSNKTDEDESIYNRVGVIMG | 0.004 ± 0.33 |
| VLKRLRTYVYSIFW | 0.543 ± 0.33 |
| MTRNHFRYTWSVANMWERGF | -0.746 ± 1.3 |
| CWPRWNSVSLGSLSILLCFF | 3.77 ± 0.11 |
| SMFRAFKGYLWGNCSREAQR | 0.026 ± 0.25 |
| IRQQKGFGCNAFWMVLG | 0.83 ± 0.78 |
| CVVRVWVYRGGKYVYLEKAP | -1.48 ± 1.4 |
| FCVRICNCRIWCLCSLTKSL | -0.624 ± 0.46 |
| LVHTDTNLVF | inactive |
| KYDRNFNTRWGTKDVWTLAD | -0.065 ± 0.57 |
| YCAFTSLRIIRISNIFIRHE | inactive |
| MDNCIISRYMFHMLVTSKVY | 0.996 ± 0.52 |
| SIHVVYNPTFQMNCYTFRLS | 7.888 ± 0.05 |
| NTAFLAVLSNALMVGMYSLL | 0.606 ± 0.58 |
| YVYGYLNHRTSSGRMFFLFY | 0.077 ± 0.38 |
| CPVKGFLSVTACDYL | -0.384 ± 0.57 |
| IVKGLSCKIDWLCASMHWMR | 0.053 ± 0.36 |
| GYNMTKAYQCVCFIGDLPGT | 4.61 ± 0.13 |
| NFLMSKTGLTPHR | 0.07 ± 0.51 |
| ATYYFICMLIVQVHFCLFTM | -0.992 ± 0.5 |

| Substance | amyloid nucleation score |
| --- | --- |
| VVDEVNTGNHDLTTSLLQLS | -0.435 ± 0.68 |
| FSCLNSFKRVFNFNIPASVC | -0.863 ± 1 |
| AIIDDHSVCYNVLKRFSNFG | 1.5 ± 0.66 |
| IGCQLNIRVCLKVILLYVEA | 0.259 ± 0.95 |
| CFSHVWVDLIDFYVRFVLFR | -0.209 ± 0.69 |
| ACEELVQIVVYCDSFMFSPS | 1.46 ± 0.52 |
| FSVYVGVILCVSATVDVWAC | 1.87 ± 0.23 |
| MMNVTVKRFRLDQHRLIDCA | 0.383 ± 0.34 |
| DSWLVAESSIHAF | -0.049 ± 1.5 |
| SDSRVVLPLLIPLSART | 0.865 ± 0.42 |
| GQFEFCMFAQYGAS | -1.14 ± 2.4 |
| HTGIIVKEVAQL | -0.507 ± 1.9 |
| NLFSGNLPRFDFAIQGAFVN | -0.447 ± 0.48 |
| VDLISWLVYEKVMSRMNIYN | -0.001 ± 0.4 |
| YYSSHYVDIAHSKE | 0.334 ± 0.32 |
| KGWLKTGVYGHVSFVGNIME | 0.467 ± 0.75 |
| SCETVWYVFNSAIACFTFRR | 4.18 ± 0.15 |
| VTHVFYAVLGGMRMGLNFPT | -0.192 ± 0.4 |
| PTRYRKLKRQAKATYIHSNP | -0.552 ± 1.6 |
| GKLPYVFRDCNKTVLVMALF | 0.947 ± 0.73 |
| GVCALAHRAPIWDQFVGMLV | 0.109 ± 0.28 |
| PLRDKESVLMWLYSYWVTNI | 0.017 ± 0.32 |
| PLFVVRIDEISSDSIRGAGH | 1.88 ± 0.53 |
| SCLPGPKRFL | 0.496 ± 1.2 |

| Substance | amyloid nucleation score |
| --- | --- |
| VSQSETCPGV | 0.433 ± 0.53 |
| QRKYNDLFWLTSPFSQSMWM | 0.997 ± 1.1 |
| GMEFMIMGNLVITGVIDKCH | -0.262 ± 0.39 |
| LDFRGMALENKVLDFRVCSV | 0.658 ± 0.3 |
| NSCRTRLVTRGCSTVPNMWM | -0.17 ± 0.43 |
| TAWSSHPEV | -1.16 ± 2.4 |
| SVIRDWLSGACSGTTEGRRT | -0.295 ± 0.43 |
| VGTLSRLSFYVVDAVSAQRG | 0.756 ± 0.81 |
| ALGYGIWGSICNWVWDPFTA | inactive |
| AVSMWLPNDLAMIRSYIGYY | -0.475 ± 0.52 |
| MFIYIYGVPVLTLWGFNVCV | 0.856 ± 0.48 |
| GKPDKVHARGWFTLVNRWLR | 0.399 ± 0.73 |
| RTLMRLN | -0.762 ± 0.41 |
| YYGQII | 1.54 ± 0.38 |
| LCQSYGCFVPYYLYDFHRVV | 6.521 ± 0.059 |
| TGRSIMPLSYRTYCIDEFVS | 0.004 ± 0.3 |
| TFVCIMFLDSSFSSENYGRL | 1.7 ± 0.16 |
| DDSFVLFW | -0.042 ± 0.55 |
| VFGCSGLDKSQWND | 0.434 ± 0.45 |
| GALVYAFYAAS | 0.525 ± 0.89 |
| RIAVWSSGSYCMYYTCWCNH | -0.191 ± 0.24 |
| AFNYRSVCWLLGTGSSSWSE | inactive |
| SVLYRINP | -1.55 ± 2.4 |
| CIVVMGSVAYHGRFYFVDVE | 1.43 ± 0.76 |
